Substrate in data set [1]: CCCCCCCCCCCCCC(=O)NCCCC[C@H](NC(=O)[C@H](CCCCN)NC(=O)[C@@H]1CCCN1C(=O)[C@H](CC(C)C)NC(=O)[C@H](C)NC(=O)[C@H](CCC(=O)O)NC(C)=O)C(=O)N[C@H](C(=O)NCC(=O)NCC(N)=O)[C@@H](C)O
In words: HPLC based activity assay. The format is biochemical, human. Particulars: other: HPLC; Sirt5 0.5 µM; pH 7.8; 37.0 °C. The procedure: (§1) For the determination of kinetic constants for all sirtuin mediated reactions solutions containing 20 mM TRIS/HCl pH 7.8, 150 mM NaCl, 5 mM MgCl2 (assay-buffer), 500 μM NAD^+ and varying substrate concentrations (0.5–100 μM) were used. Deacylation was started by adding human sirtuin to reach a final concentration of 0.01–0.5 μM. Enzyme-catalyzed reaction was stopped using TFA (1% final concentration) after 1 min to 180 min of incubation at 37 °C depending on substrate reactivity. The cleavage rate of the different TNFα peptide derivatives was analyzed using analytical reversed phase HPLC. 40 to 80 μl of compounds or reaction solutions were injected and separated using a linear gradient from 5% to 95% solvent B within 6min. The product and substrate peaks were quantified using absorbance at 220 nm or 365 nm (absorption of 3-Nitrotyrosyl moiety). The peak areas were integrated and converted to initial velocity rates calculated from the ratio of product area to total peak area. Linear regression of conversions plotted against time yielded reaction rates in μM/min (relative conversion below 20% of substrate). Non-linear regression according to Michaelis-Menten of the reaction rates at different substrate concentrations yielded KM- and kcat-values using the program SigmaPlot 8 (Systat Software, San Jose, USA). All measurements were done in duplicates.

Data set [2] has as its target human sirtuin 6, His-tagged Sirt6 (1-355) (human) (UniProt Q8N6T7).
Substrate in data set [3]: CC(=O)N[C@@H](CCC(=O)O)C(=O)N[C@@H](C)C(=O)N[C@@H](CC(C)C)C(=O)N1CCC[C@H]1C(=O)N[C@@H](CCCCN)C(=O)N[C@@H](CCCCNC(=O)CCCCCCCCCCNC(=O)c1ccccc1N)C(=O)N[C@@H](Cc1ccc(O)c([N+](=O)[O-])c1)C(=O)NCC(=O)NCC(N)=O
In words: purified protein, by the assay type. Particulars: other: Sirt1 500 nM; fluorescence spectrophotometer (footnote a); 37.0 °C.

Substrate in data set [4]: CC(=O)N[C@@H](CCC(=O)O)C(=O)N[C@@H](C)C(=O)N[C@@H](CC(C)C)C(=O)N1CCC[C@H]1C(=O)N[C@@H](CCCCN)C(=O)N[C@@H](CCCCNC(=O)CCCCCCCCCCNC(=O)c1ccccc1N)C(=O)N[C@@H](Cc1ccc(O)c([N+](=O)[O-])c1)C(=O)NCC(=O)NCC(N)=O
In words: Continuous fluorescence assay, substrate kinetics. The format is biochemical, human. Particulars: other: FS (fluorescence spectrometer); Sirt3 0.1 µM; 37.0 °C. As to the method: The fluorescence measurements were performed on a Hitachi F-4500 fluorescence spectrophotometer (Tokyo, Japan) at λEx = 310 nm and λEm = 405 nm (slitEx = 5 nm, slitEm = 2.5 nm, PMT = 700 V for 3, 4 and 5 as well as slitEx = 10 nm, slitEm = 10 nm, PMT = 950 V for 4a). Each reaction mixture contained assay-buffer, 0.5 mM NAD^+ and various peptide concentrations (0.1–100 μM) and was preincubated for 5 minutes at 37 °C. The reaction was started by adding human sirtuin (0.1–0.5 μM) and observed for 5–10 minutes. Product formation could be monitored by increase of relative fluorescence. This signal was converted into product concentration via calibration lines. The slope of the linear regression of product formation against time yielded the reaction velocity rates in μM/s. KM and kcat were obtained by non-linear regression according to Michaelis-Menten. All measurements were done in duplicates. For determination of reaction velocity rates in μM/s calibration lines were necessary. […] The reaction mixture was analyzed with HPLC, to control if the entire peptide substrate was turned to product. Additionally the mixture was diluted (0.1–25 μM) and measured with Hitachi F-4500 fluorescence spectrophotometer at the same conditions as described above.
The microtiter plate fluorescence measurements were performed on a Tecan Infinite M200 microplate reader (Maennedorf, Switzerland) at λEx = 320 nm and λEm = 408 nm (lag time 9 μs, integration time […], gain 160, 170 or 182). The reactions (total volume 100 μl) were measured in black low-binding 96-well microtiter plates (NUNC). […] The signals were converted into product concentration via calibration lines and the resulting data were evaluated as described above (single fluorescence measurement). […] The reaction mixture for the calibration lines was prepared as described for the single fluorescence measurements. […] The resulting plots were analyzed by a competitive inhibition and non-competitive inhibition model using the program Sigma Plot 8. […] The negative Ki value can be determined as intersection with the X-axis from these plots.

Substrate in data set [5]: CCCCCCCCCCCCCC(=O)NCCCC[C@H](NC(=O)[C@H](CCCCN)NC(=O)[C@@H]1CCCN1C(=O)[C@H](CC(C)C)NC(=O)[C@H](C)NC(=O)[C@H](CCC(=O)O)NC(C)=O)C(=O)N[C@H](C(=O)NCC(=O)NCC(N)=O)[C@@H](C)O
Put plainly: HPLC based activity assay. The format is biochemical, human. Particulars: other: HPLC; Sirt3 0.1 µM; pH 7.8; 37.0 °C. The procedure: as §1
The reactions were performed with 0.1- 0.5 µM sirtuin, 500 µM NAD^+ and 50µM 13/16. All reactions were done in duplicates (n=2).

Consider four molecules from publication PMC4778124, “A continuous sirtuin activity assay without any coupling to enzymatic or chemical reactions” (Scientific Reports, 2016).

*: point of attachment. Myristoyl = CCCCCCCCCCCCCC(=O)*

human sirtuin 6, His-tagged Sirt6 (1-355) (human), sequence (Q8N6T7 whole entry): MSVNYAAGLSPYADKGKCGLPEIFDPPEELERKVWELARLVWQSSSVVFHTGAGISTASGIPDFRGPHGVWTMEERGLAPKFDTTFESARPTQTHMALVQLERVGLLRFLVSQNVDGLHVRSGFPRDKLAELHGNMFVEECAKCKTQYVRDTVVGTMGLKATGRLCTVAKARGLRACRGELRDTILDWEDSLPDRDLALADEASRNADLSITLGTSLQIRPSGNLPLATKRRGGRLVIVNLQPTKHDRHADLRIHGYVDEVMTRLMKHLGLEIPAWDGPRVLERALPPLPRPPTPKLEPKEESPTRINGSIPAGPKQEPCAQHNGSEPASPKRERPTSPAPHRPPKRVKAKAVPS

B1: Sirt5 (Homo sapiens) (protein)
chain: SSSMADFRKFFAKAKHIVIISGAGVSAESGVPTFRGAGGYWRKWQAQDLATPLAFAHNPSRVWEFYHYRREVMGSKEPNAGHRAIAECETRLGKQGRRVVVITQNIDELHRKAGTKNLLEIHGSLFKTRCTSCGVVAENYKSPICPALSGKGAPEPGTQDASIPVEKLPRCEEAGCGGLLRPHVVWFGENLDPAILEEVDRELAHCDLCLVVGTSSVVYPAAMFAPQVAARGVPVAEFNTETTPATNRFRFHFQGPCGTTLPEALACHENETVS
notes: made in house
As for B1, in data set [1], the Km is reported as 16.5 ± 3.1 µM, the kcat was 5.7∙10^-3 ± 0.3∙10^-3 s^-1 and the kcat/Km is 3.48∙10^2 M^-1s^-1.

B2: myristoylated TNFα-derived peptide 1a (peptide)
peptide: Ac-EALPKK(Myristoyl)TGG-NH2
SMILES: CCCCCCCCCCCCCC(=O)NCCCC[C@H](NC(=O)[C@H](CCCCN)NC(=O)[C@@H]1CCCN1C(=O)[C@H](CC(C)C)NC(=O)[C@H](C)NC(=O)[C@H](CCC(=O)O)NC(C)=O)C(=O)N[C@H](C(=O)NCC(=O)NCC(N)=O)[C@@H](C)O
B2: the KM of Sirt6-mediated deacylation, HPLC-based activity assay in data set [2] was 6 µM.

B3: Sirt1 (Homo sapiens) (protein)
chain: MADEAALALQPGGSPSAAGADREAASSPAGEPLRKRPRRDGPGLERSPGEPGGAAPEREVPAAARGCPGAAAAALWREAEAEAAAAGGEQEAQATAAAGEGDNGPGLQGPSREPPLADNLYDEDDDDEGEEEEEAAAAAIGYRDNLLFGDEIITNGFHSCESDEEDRASHASSSDWTPRPRIGPYTFVQQHLMIGTDPRTILKDLLPETIPPPELDDMTLWQIVINILSEPPKRKKRKDINTIEDAVKLLQECKKIIVLTGAGVSVSCGIPDFRSRDGIYARLAVDFPDLPDPQAMFDIEYFRKDPRPFFKFAKEIYPGQFQPSLCHKFIALSDKEGKLLRNYTQNIDTLEQVAGIQRIIQCHGSFATASCLICKYKVDCEAVRGDIFNQVVPRCPRCPADEPLAIMKPEIVFFGENLPEQFHRAMKYDKDEVDLLIVIGSSLKVRPVALIPSSIPHEVPQILINREPLPHLHFDVELLGDCDVIINELCHRLGGEYAKLCCNPVKLSEITEKPPRTQKELAYLSELPPTPLHVSEDSSSPERTSPPDSSVIVTLLDQAAKSNDDLDVSESKGCMEEKPQEVQTSRNVESIAEQMENPDLKNVGSSTGEKNERTSVAGTVRKCWPNRVAKEQISRRLDGNQYLFLPPNRYIFHGAEVYSDSEDDVLSSSSCGSNSDSGTCQSPSLEEPMEDESEIEEFYNGLEDEPDVPERAGGAGFGTDGDDQEAINEAISVKQEVTDMNYPSNKS
B3: the Michaelis-Menten constant (Km) in data set [3] was 0.7 ± 0.08 µM.

B4: Sirt3 (Homo sapiens) (protein)
chain: MAFWGWRAAAALRLWGRVVERVEAGGGVGPFQACGCRLVLGGRDDVSAGLRGSHGARGEPLDPARPLQRPPRPEVPRAFRRQPRAAAPSFFFSSIKGGRRSISFSVGASSVVGSGGSSDKGKLSLQDVAELIRARACQRVVVMVGAGISTPSGIPDFRSPGSGLYSNLQQYDLPYPEAIFELPFFFHNPKPFFTLAKELYPGNYKPNVTHYFLRLLHDKGLLLRLYTQNIDGLERVSGIPASKLVEAHGTFASATCTVCQRPFPGEDIRADVMADRVPRCPVCTGVVKPDIVFFGEPLPQRFLLHVVDFPMADLLLILGTSLEVEPFASLTEAVRSSVPRLLINRDLVGPLAWHPRSRDVAQLGDVVHGVESLVELLGWTEEMRDLVQRETGKLDGPDK
notes: made in house
In the case of B4, in data set [4], the Km is 2.4 ± 0.2 µM, the kcat was 1.2∙10^-2 ± 0.3∙10^-3 s^-1 and the kcat/Km is 5.15∙10^3 M^-1s^-1. In data set [5], the Km is 1.6 ± 0.4 µM, the kcat is given as 4.7∙10^-2 ± 0.3∙10^-2 s^-1 and the kcat/Km was 2.95∙10^4 M^-1s^-1.

One may read the Km as the substrate concentration at which the rate is half of its maximum.
